One block for each binder: values may come before it. Non-standard residues stand in square brackets, D forms with d. No end group written: not given here. Tyr(3-I) = N[C@@H](Cc1ccc(O)c(I)c1)C(=O)O; Tic = O=C(O)[C@@H]1Cc2ccccc2CN1; Ac6c = NC1(C(=O)O)CCCCC1; βturn = not defined here
Target: human insulin receptor (HIR) (human, UniProt P06213)
Assay: competition

Binder: CGFHENFYDWFVRQVSKK (not fully specified; ends and bridges not checked) [S171]
Kd: 29000 nM

B1: S588 (peptide)
chain 1: LEEEWAQVECEV
chain 2: [Tyr(3-I)]GRGCSGSLDESFYDWFERQLG
modifications: ends and bridges not checked
Kd: 0.18 nM

B2: S256 (peptide)
chain: [Ac6c]CLEE[dW]GASL[Tic]QCSG
modifications: not fully specified (bridges); printed as Acy-CLEEwGASL-Tic-QCSG; cysteine pairing not given here
Kd: 90000 nM

Binder: Ac-SIEEEWAQIKCDVWGRGSESFYDWFERQL (ends and bridges not checked) [S600]
Kd: 0.0076 nM

Binder: SLEEEWAQVECEVYGRGCPSESFYDWFVRQLG [S555]
Kd: 0.057 nM

Binder: SLEEEWAQIECEVWGRGCPSESFYDWFERQL [S558]
Kd: 0.019 nM

Binder: QAPSNFYDWFVREWDEE [S287]
Kd: 59 nM

Binder: SLEEEWAQIECEVWGRCWHHSFYDWFERQL [S594]
Kd: 0.071 nM

Binder: SLNFYDALQLLAKK [S119]
Kd: 18 nM

Binder: SLEEEWAQIQHELWPVEKGESFYDWFERQL (not fully specified (N-terminus); ends and bridges not checked) [S605]
Kd: 0.094 nM

B5: S444 (peptide)
chain 1: ESFYDWFERQLGGGGK
chain 2: VQCEVYGRGCPS
Kd: 190 nM

Binder: DWLQRNANFYDWFVAELX (listing feature) [S294]
Kd: 130 nM

Continued, values first:

Kd: > 20000 nM
Binder: WGRSFYRYFETLLAQGI [S261]

Kd: 83000 nM
Binder: [dF][dH][dE][dN][dF][dY][dD][dW][dF][dV][dR][dQ][dV][dS][dK][dK] [S114]

Kd: 0.004 nM
Binder: SLEEEWAQIQCEVWGRGCPSESFYDWFERQL (not fully specified (N-terminus); ends and bridges not checked) [S606]

Kd: 62 nM
B3: S423 (peptide)
chain 1: ESFYDWFERQLGK
chain 2: ACAWPTYWNCG
modifications: ends and bridges not checked; also: two chains joined C-terminus to C-terminus, the link is not given here

Kd: 0.012 nM
B4: S581 (peptide)
chain 1: SLEEEWAQIESEVWGR-βturn
chain 2: ESFYDWFERQLG
modifications: not fully specified; printed as SLEEEWAQIESEVWGR-βturn-ESFYDWFERQLG; ends and bridges not checked

Kd: 0.032 nM
Binder: SIEEEWAQIKCDVWGRGCSESFYDWFERQL [S556]

Kd: > 2000 nM
Binder: AFYDWFAK [S180]

Kd: 0.0073 nM
Binder: SLEEEWAQVECEVYGRGCPPGLLDESFYHWFDRQLR [S553]

Kd: 180 nM
B6: S432 (peptide)
chain 1: ESFYDWFERQLGGGGK
chain 2: CEVYGRGCPS

Source: patent US20110124556 (published 2011)
